Blank lines part the entries; values can stand above or below the binder they belong to. No end group written: not given here.
Columns and labels:
[1] = molecular target: T1, AND-1 (329–826), SepB domain (human, UniProt O75717 329-826); experiment: fluorescence polarisation; 30 nM fluorescein-labelled Pol α CIP peptide, AND-1 SepB titrated; 25 mM HEPES pH 7.2, 140 mM NaCl, 5 mM DTT, 5 mM MgCl2, 5% glycerol; 25°C; 96-well plate; conditions: both partners purified
T1 construct: human AND-1, residues 329-826 (SepB domain); residues 329-420 and 824-826 not in the final crystallographic model; Trimer arises from crystallographic symmetry (one protomer per asymmetric unit); also called AND-1 SepB
T1 sequence (looked up): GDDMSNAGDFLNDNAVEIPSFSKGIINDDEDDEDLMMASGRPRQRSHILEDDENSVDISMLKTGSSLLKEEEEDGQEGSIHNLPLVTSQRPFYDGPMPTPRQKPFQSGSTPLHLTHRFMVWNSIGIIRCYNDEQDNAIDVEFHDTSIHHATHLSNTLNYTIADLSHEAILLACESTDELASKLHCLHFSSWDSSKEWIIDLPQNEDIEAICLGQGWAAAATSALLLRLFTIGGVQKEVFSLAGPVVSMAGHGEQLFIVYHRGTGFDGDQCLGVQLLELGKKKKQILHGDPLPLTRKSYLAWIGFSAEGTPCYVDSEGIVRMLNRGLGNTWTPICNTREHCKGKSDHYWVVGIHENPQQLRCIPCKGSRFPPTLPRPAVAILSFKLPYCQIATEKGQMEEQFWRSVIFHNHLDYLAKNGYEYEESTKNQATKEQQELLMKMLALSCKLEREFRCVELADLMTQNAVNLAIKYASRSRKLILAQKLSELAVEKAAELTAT

AND-1 full length [2] = molecular target: T2, AND-1 full length (human, UniProt O75717 1-1129); experiment: fluorescence anisotropy; FP: 25 mM HEPES pH 7.2, 100 mM KCl, 0.5 mM TCEP, 20 nM DNA, 25 C; EMSA: 25 mM HEPES pH 7.2, 100 mM KCl, 5 mM MgCl2, TCEP, 3 uM DNA, 0.75% (so in the source) agarose gel in 0.5x Tris-borate pH 8.3, 4 C; conditions: protein: recombinant; tags: His10-myc; chain copies: 3; label: 5' 6FAM; single strand
T2 sequence: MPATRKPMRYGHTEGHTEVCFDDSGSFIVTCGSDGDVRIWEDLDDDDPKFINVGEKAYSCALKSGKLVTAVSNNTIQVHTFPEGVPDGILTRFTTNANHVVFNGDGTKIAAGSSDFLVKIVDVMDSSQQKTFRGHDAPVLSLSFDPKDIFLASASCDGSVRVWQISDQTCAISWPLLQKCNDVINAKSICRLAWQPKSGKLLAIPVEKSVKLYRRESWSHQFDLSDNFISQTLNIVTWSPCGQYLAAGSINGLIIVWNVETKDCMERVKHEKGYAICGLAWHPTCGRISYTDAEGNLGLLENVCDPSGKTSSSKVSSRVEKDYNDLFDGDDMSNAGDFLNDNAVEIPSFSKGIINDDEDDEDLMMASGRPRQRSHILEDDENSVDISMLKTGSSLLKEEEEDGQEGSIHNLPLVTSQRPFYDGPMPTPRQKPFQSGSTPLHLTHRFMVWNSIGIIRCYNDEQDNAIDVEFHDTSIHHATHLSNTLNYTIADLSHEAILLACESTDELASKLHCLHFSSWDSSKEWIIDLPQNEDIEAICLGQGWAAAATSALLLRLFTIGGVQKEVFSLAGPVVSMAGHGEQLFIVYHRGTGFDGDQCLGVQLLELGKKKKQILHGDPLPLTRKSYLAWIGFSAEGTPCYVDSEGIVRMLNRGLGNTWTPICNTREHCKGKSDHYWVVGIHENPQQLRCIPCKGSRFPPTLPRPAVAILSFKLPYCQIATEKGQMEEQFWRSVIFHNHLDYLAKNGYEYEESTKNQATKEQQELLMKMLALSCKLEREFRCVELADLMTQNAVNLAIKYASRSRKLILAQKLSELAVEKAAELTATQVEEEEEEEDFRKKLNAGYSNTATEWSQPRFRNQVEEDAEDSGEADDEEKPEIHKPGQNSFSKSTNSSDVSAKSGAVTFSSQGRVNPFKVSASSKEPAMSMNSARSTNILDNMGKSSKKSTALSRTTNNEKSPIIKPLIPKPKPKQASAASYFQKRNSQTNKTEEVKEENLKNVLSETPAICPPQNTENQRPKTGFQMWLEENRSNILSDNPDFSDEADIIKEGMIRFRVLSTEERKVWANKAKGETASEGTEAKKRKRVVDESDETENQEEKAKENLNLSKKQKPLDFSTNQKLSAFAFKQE

AND-1CT = molecular target: T3, AND-1CT (human, UniProt O75717 837-1129); experiment: as above; conditions: protein: recombinant; tags: none (His6-MBP removed by TEV); label: 5' 6FAM; single strand
T3 sequence: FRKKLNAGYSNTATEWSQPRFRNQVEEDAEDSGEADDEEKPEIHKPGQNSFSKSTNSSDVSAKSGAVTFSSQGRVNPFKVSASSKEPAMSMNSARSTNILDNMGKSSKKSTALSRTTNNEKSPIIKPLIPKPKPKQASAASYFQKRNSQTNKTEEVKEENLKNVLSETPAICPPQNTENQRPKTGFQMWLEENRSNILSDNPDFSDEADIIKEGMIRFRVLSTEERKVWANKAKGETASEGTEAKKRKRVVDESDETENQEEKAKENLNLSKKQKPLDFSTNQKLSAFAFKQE

AND-1 full length [3] = molecular target: T2, AND-1 full length; experiment: EMSA; 5 mM MgCl2; FP: 25 mM HEPES pH 7.2, 100 mM KCl, 0.5 mM TCEP, 20 nM DNA, 25 C; EMSA: 25 mM HEPES pH 7.2, 100 mM KCl, 5 mM MgCl2, TCEP, 3 uM DNA, 0.75% (so in the source) agarose gel in 0.5x Tris-borate pH 8.3, 4 C; conditions: protein: recombinant; tags: His10-myc; chain copies: 3; label: 5' 6FAM on strand 1; fork, 20 bp duplex (1:1-20 with 2:21-40), unpaired arms of 20 nt (1:21-40 3' arm, 2:1-20 5' arm)
[4] = molecular target: T4, MBP-tagged AND-1CT (837–1129) (human, UniProt O75717 837-1129); experiment: pull-down; MBP-AND-1 constructs bound to 100 µl amylose resin, 25 nmol GST-B added as prey; PD buffer, 2.5 mg/ml BSA, 4°C; eluted with 20 mM maltose; Coomassie; conditions: both partners purified
T4 construct: also called entire AND-1CT; source: E. coli Rosetta2(DE3), purified (Ni-NTA, Superdex 200)
T4 sequence (looked up): T3 sequence

[5] = molecular target: T5, Full-length His10-myc-tagged AND-1 (1–1129) (human, UniProt O75717 1-1129); experiment: pull-down; GST-B fusion proteins (in figure 6a also GST-Pol α CIP, equimolar) bound to 100 µl glutathione agarose, 2.2 nmol AND-1 (1–1129, 316–1129 or 336–826) added as prey; PD buffer, 2.5 mg/ml BSA, 4°C; Coomassie, anti-His western blot in figure 6a; conditions: both partners purified
T5 construct: the oligomeric state was measured only on the SepB constructs; also called His-myc-AND-1; human CTF4-orthologue AND-1; source: Sf9 insect cells (baculovirus, MultiBac), purified (Ni-NTA, Q-Sepharose)
T5 sequence (looked up): T2 sequence

[6] = molecular target: T6, AND-1 SepB + CT (316–1129) (human, UniProt O75717 316-1129); experiment: as above; conditions: both partners purified
T6 construct: source: E. coli Rosetta2(DE3), purified (Ni-NTA, Q-Sepharose, TEV cleavage, Superdex 200)
T6 sequence (looked up): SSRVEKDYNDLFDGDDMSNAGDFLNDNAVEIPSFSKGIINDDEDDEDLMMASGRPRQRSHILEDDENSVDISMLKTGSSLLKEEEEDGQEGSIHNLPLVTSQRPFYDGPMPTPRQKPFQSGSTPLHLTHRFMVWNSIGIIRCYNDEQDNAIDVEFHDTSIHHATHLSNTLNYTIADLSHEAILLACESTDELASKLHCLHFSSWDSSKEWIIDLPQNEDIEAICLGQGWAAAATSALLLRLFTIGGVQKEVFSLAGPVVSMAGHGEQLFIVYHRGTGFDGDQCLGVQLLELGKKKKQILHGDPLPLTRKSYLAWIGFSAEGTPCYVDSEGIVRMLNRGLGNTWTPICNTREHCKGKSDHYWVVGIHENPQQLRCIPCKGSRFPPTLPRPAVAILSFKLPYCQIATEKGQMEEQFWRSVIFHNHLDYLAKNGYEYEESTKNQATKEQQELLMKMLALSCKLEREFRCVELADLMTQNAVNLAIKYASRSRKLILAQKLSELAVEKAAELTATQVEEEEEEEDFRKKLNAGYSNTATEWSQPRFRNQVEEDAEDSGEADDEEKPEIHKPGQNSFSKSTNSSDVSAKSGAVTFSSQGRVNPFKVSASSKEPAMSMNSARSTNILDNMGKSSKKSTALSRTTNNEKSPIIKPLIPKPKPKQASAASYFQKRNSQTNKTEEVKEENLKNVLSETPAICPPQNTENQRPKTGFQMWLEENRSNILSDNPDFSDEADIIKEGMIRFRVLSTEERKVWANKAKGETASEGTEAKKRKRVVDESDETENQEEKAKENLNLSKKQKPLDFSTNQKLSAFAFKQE

Kd [1]: 39 µM
B1: Fluorescein-labelled Pol α CIP peptide (152–171) (peptide)
peptide: DLSKDGLLGDILQDLNTETP
modifications: also: fluorescein label, position not given here
notes: source: synthetic peptide (Genosphere Biotechnologies)

B2: ssDNA 40mer (oligo A) (ssDNA)
DNA: CTTCCGAGACCTTGCCCATCCCGTAGAACCTGTTATCCAA
Kd (AND-1 full length [2]): ~800 nM | Kd (AND-1CT): ~800 nM

B3: fDNA (oligos A+C) (mixed)
DNA 1: B2 DNA
DNA 2: GCTACCTTTGAACCTACGATGATGGGCAAGGTCTCGGAAG
binding result (AND-1 full length [3]): binds

binding result [4]: binds | binding result [5]: binds | binding result [6]: binds
B4: GST-BNTD (B subunit amino acids 1–78) (domain or fragment, human, UniProt Q14181 1-78, looked up)
chain: MSASAQQLAEELQIFGLDCEEALIEKLVELCVQYGQNEEGMVGELIAFCTSTHKVGLTSEILNSFEHEFLSKRLSKAR
notes: human DNA polymerase α B subunit, residues 1-78 (four-helix bundle N-terminal domain); also called GST-B(1–78); B N-terminal domain; source: E. coli Rosetta2(DE3), purified (Ni-NTA agarose)

From paper PMC5717350, “The human CTF4-orthologue AND-1 interacts with DNA polymerase α/primase via its unique C-terminal HMG box” (Open Biology, 2017)
